Source: patent US20240117018A1

Tests used:
Test in all cases: cell-based or functional assay
[1] = molecular target: HIV-1 Env pseudovirus C4118.c09 (HIV-1)
[2] = molecular target: HIV-1 Env pseudovirus 6540.v4.c1 (HIV-1)
[3] = molecular target: HIV-1 Env pseudovirus C1080.c03 (HIV-1)
[4] = molecular target: HIV-1 Env pseudovirus 6545.v4.c1 (HIV-1)
[5] = molecular target: HIV-1 Env pseudovirus P0402_c2_11 (HIV-1)
[6] = molecular target: HIV-1 Env pseudovirus 6811.v7.c18 (HIV-1)
[7] = molecular target: HIV-1 Env pseudovirus R1166.c01 (HIV-1)
[8] = molecular target: HIV-1 Env pseudovirus R3265.c06 (HIV-1)
[9] = molecular target: HIV-1 Env pseudovirus 620345.c01 (HIV-1)
[10] = molecular target: HIV-1 Env pseudovirus Ce0393_C3 (HIV-1)
[11] = molecular target: HIV-1 Env pseudovirus 1012_11_TC21_3257 (HIV-1)
[12] = molecular target: HIV-1 Env pseudovirus Du172.17 (HIV-1)
[13] = molecular target: HIV-1 Env pseudovirus ZM109F.PB4 (HIV-1)
[14] = molecular target: HIV-1 Env pseudovirus RHPA4259.7 (HIV-1)
[15] = molecular target: HIV-1 Env pseudovirus SC05_8C11_2344 (HIV-1)
[16] = molecular target: HIV-1 Env pseudovirus Ce2010_F5 (HIV-1)
[17] = molecular target: HIV-1 Env pseudovirus CAP45.2.00.G3 (HIV-1)
[18] = molecular target: HIV-1 Env pseudovirus 1006_11_C3_1601 (HIV-1)
[19] = molecular target: HIV-1 Env pseudovirus REJO4541.67 (HIV-1)
[20] = molecular target: HIV-1 Env pseudovirus 6244_13_B5_4576 (HIV-1)
[21] = molecular target: HIV-1 Env pseudovirus Q23.17 (HIV-1)
[22] = molecular target: HIV-1 Env pseudovirus AC10.0.29 (HIV-1)
[23] = molecular target: HIV-1 Env pseudovirus WEAU_d15_410_787 (HIV-1)

With 8ANC195 (antibody) the IC50 (Titer in TZM.bl cells) [1] was 0.2 µg/mL, the IC80 (Titer in TZM.bl cells) [1] was 0.71 µg/mL and the IC50 (Titer in TZM.bl cells) [2] was over 50 µg/mL. The IC80 (Titer in TZM.bl cells) [2] was over 50 µg/mL, the IC50 (Titer in TZM.bl cells) [3] was 0.17 µg/mL and the IC80 (Titer in TZM.bl cells) [3] was 1.12 µg/mL. The IC50 (Titer in TZM.bl cells) [4] was 26.9 µg/mL, the IC80 (Titer in TZM.bl cells) [4] was over 50 µg/mL and the IC50 (Titer in TZM.bl cells) [5] was 0.62 µg/mL. The IC80 (Titer in TZM.bl cells) [5] was 6.35 µg/mL, the IC50 (Titer in TZM.bl cells) [6] was 5.34 µg/mL and the IC80 (Titer in TZM.bl cells) [6] was 27.6 µg/mL. For the same substance, the IC50 (Titer in TZM.bl cells) [7] was 4.83 µg/mL, the IC80 (Titer in TZM.bl cells) [7] was 4.83 µg/mL and the IC50 (Titer in TZM.bl cells) [8] was 50 µg/mL. It also gave an IC80 (Titer in TZM.bl cells) [8] of over 50 µg/mL, an IC50 (Titer in TZM.bl cells) [9] of over 50 µg/mL and an IC80 (Titer in TZM.bl cells) [9] of over 50 µg/mL.
For VRC01 (antibody), the IC50 (Titer in TZM.bl cells) [10] was 0.62 µg/mL, the IC80 (Titer in TZM.bl cells) [10] was 2.37 µg/mL and the IC50 (Titer in TZM.bl cells) [11] was 0.12 µg/mL. For the same substance, the IC80 (Titer in TZM.bl cells) [11] was 0.32 µg/mL, the IC50 (Titer in TZM.bl cells) [12] was over 50 µg/mL and the IC80 (Titer in TZM.bl cells) [12] was over 50 µg/mL. The IC50 (Titer in TZM.bl cells) [13] was 0.13 µg/mL, the IC80 (Titer in TZM.bl cells) [13] was 0.75 µg/mL and the IC50 (Titer in TZM.bl cells) [14] was 0.06 µg/mL. The IC80 (Titer in TZM.bl cells) [14] was 0.185 µg/mL, the IC50 (Titer in TZM.bl cells) [15] was 0.64 µg/mL and the IC80 (Titer in TZM.bl cells) [15] was 1.91 µg/mL. For the same substance, the IC50 (Titer in TZM.bl cells) [16] was 0.32 µg/mL, the IC80 (Titer in TZM.bl cells) [16] was 1.07 µg/mL and the IC80 (Titer in TZM.bl cells) [17] was over 50 µg/mL. The IC50 (Titer in TZM.bl cells) [2] was over 50 µg/mL, the IC80 (Titer in TZM.bl cells) [2] was over 50 µg/mL and the IC50 (Titer in TZM.bl cells) [18] was 0.15 µg/mL. It also gave an IC80 (Titer in TZM.bl cells) [18] of 0.39 µg/mL, an IC50 (Titer in TZM.bl cells) [3] of 3.4 µg/mL and an IC80 (Titer in TZM.bl cells) [3] of 14.4 µg/mL. It also gave an IC50 (Titer in TZM.bl cells) [19] of 0.06 µg/mL, an IC80 (Titer in TZM.bl cells) [19] of 0.25 µg/mL and an IC50 (Titer in TZM.bl cells) [20] of 0.21 µg/mL. It also gave an IC80 (Titer in TZM.bl cells) [20] of 0.53 µg/mL, an IC50 (Titer in TZM.bl cells) [4] of over 50 µg/mL and an IC80 (Titer in TZM.bl cells) [4] of over 50 µg/mL. For the same substance, the IC50 (Titer in TZM.bl cells) [5] was 0.21 µg/mL, the IC80 (Titer in TZM.bl cells) [5] was 0.59 µg/mL and the IC50 (Titer in TZM.bl cells) [6] was 0.09 µg/mL. For the same substance, the IC80 (Titer in TZM.bl cells) [6] was 0.26 µg/mL, the IC50 (Titer in TZM.bl cells) [7] was 1.7 µg/mL and the IC80 (Titer in TZM.bl cells) [7] was 4.58 µg/mL. It also gave an IC50 (Titer in TZM.bl cells) [21] of 0.09 µg/mL, an IC80 (Titer in TZM.bl cells) [21] of 0.261 µg/mL and an IC50 (Titer in TZM.bl cells) [22] of 2.2 µg/mL. The IC80 (Titer in TZM.bl cells) [22] was 6.5 µg/mL, the IC50 (Titer in TZM.bl cells) [8] was 0.45 µg/mL and the IC80 (Titer in TZM.bl cells) [8] was 1.88 µg/mL. For the same substance, the IC50 (Titer in TZM.bl cells) [23] was 0.12 µg/mL, the IC80 (Titer in TZM.bl cells) [23] was 0.26 µg/mL and the IC50 (Titer in TZM.bl cells) [9] was over 50 µg/mL. The IC80 (Titer in TZM.bl cells) [9] was over 50 µg/mL.
3BNC117 (antibody) was tested, and the IC50 (Titer in TZM.bl cells) [1] was 0.09 µg/mL, the IC80 (Titer in TZM.bl cells) [1] was 0.52 µg/mL and the IC50 (Titer in TZM.bl cells) [2] was over 50 µg/mL. For the same substance, the IC80 (Titer in TZM.bl cells) [2] was over 50 µg/mL, the IC50 (Titer in TZM.bl cells) [3] was 0.25 µg/mL and the IC80 (Titer in TZM.bl cells) [3] was 1.73 µg/mL. For the same substance, the IC50 (Titer in TZM.bl cells) [4] was over 50 µg/mL, the IC80 (Titer in TZM.bl cells) [4] was over 50 µg/mL and the IC50 (Titer in TZM.bl cells) [5] was 0.06 µg/mL. For the same substance, the IC80 (Titer in TZM.bl cells) [5] was 0.38 µg/mL, the IC50 (Titer in TZM.bl cells) [6] was 0.03 µg/mL and the IC80 (Titer in TZM.bl cells) [6] was 0.17 µg/mL. It also gave an IC50 (Titer in TZM.bl cells) [7] of 0.17 µg/mL, an IC80 (Titer in TZM.bl cells) [7] of 0.64 µg/mL and an IC50 (Titer in TZM.bl cells) [8] of 0.48 µg/mL. The IC80 (Titer in TZM.bl cells) [8] was 13 µg/mL, the IC50 (Titer in TZM.bl cells) [9] was over 15 µg/mL and the IC80 (Titer in TZM.bl cells) [9] was over 15 µg/mL.
In the case of VRC07 (antibody), the IC50 (Titer in TZM.bl cells) [1] is reported as 0.121 µg/mL, the IC80 (Titer in TZM.bl cells) [1] is reported as 0.444 µg/mL and the IC50 (Titer in TZM.bl cells) [2] is reported as over 50 µg/mL. The IC80 (Titer in TZM.bl cells) [2] was over 50 µg/mL, the IC50 (Titer in TZM.bl cells) [3] was 2.03 µg/mL and the IC80 (Titer in TZM.bl cells) [3] was 8.25 µg/mL. The IC50 (Titer in TZM.bl cells) [4] was over 50 µg/mL, the IC80 (Titer in TZM.bl cells) [4] was over 50 µg/mL and the IC50 (Titer in TZM.bl cells) [5] was 0.085 µg/mL. It also gave an IC80 (Titer in TZM.bl cells) [5] of 0.422 µg/mL, an IC50 (Titer in TZM.bl cells) [6] of 0.093 µg/mL and an IC80 (Titer in TZM.bl cells) [6] of 0.435 µg/mL. The IC50 (Titer in TZM.bl cells) [7] was 0.81 µg/mL, the IC80 (Titer in TZM.bl cells) [7] was 3.17 µg/mL and the IC50 (Titer in TZM.bl cells) [9] was over 50 µg/mL. It also gave an IC80 (Titer in TZM.bl cells) [9] of over 50 µg/mL.
